Assay results published in the supplement of paper PMC7877785.
± gives the uncertainty stated by the source.

Assay: self-splicing fitness, log relative to wild type (ln ratio); higher = more splicing; Tetrahymena group I intron in knt gene, E. coli kanamycin selection, DiMSum; sequences stand for … in CUCUCU…GGAGGGAAAAGUUAUCAGGCAUGCACCUGGUAGCUAGUCUUUAAACCAAUAGAUUGCAUCGGUUUAAAAGGCAAGACCGUCAAAUUGCGGGAAAGGGGUCAACAGCCGUUCAGUACCAAGUCUCAGGGGAAACUUUGAGAUGGCCUUGCAAAGGGUAUGGUAAUAAGCUGACGGACAUGGUCCUAACCACGCAGCCAAGUCCUAAGUCAACAGAUCUUCUGUUGAUAUGGAUGCAGUUCACAGACUAAAUGUCGGUCGGGGAAGAUGUAUUCUUCUCAUAAGAUAUAGUCGGACCUCUCCUUAAUGGGAGCUAGCGGAUGAAGUGAUGCAACACUGGAGCCGCUGGGAACUAAUUUGUAUGCGAAAGUAUAUUGAUUAGUUUUGGAGUACUCGUGGUCG
In short: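 Fitness was computed with DiMSum as the error-weighted combination of replicate fold changes, kanamycin versus none, each normalised to wild type. The library randomised all eight intron nucleotides of the P1ex region, with the intron placed in the knt kanamycin-resistance gene on pET-22b(+) in E. coli BL21(DE3). Six replicate transformations were grown overnight at 37°C or 30°C on LB agar with or without 25 μg/mL kanamycin, plus 100 μg/mL carbenicillin, 50 μM IPTG and 0.2% rhamnose. Pooled colonies were amplicon-sequenced on an Illumina HiSeq 2500.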

Sequence	self-splicing fitness (ln) (30 °C)	self-splicing fitness (ln) (37 °C)
AGGCAGCAAUAUUACGACGC	-0.638 ± 0.12	-0.663 ± 0.14
AGGCAGCAAUAUUACGACUC	-1.65 ± 0.14	-1.01 ± 0.19
AGGCAGCAAUAUUACGAGAG	-3.49 ± 0.15	-2.79 ± 0.15
AGGCAGCAAUAUUACGCACU	-1.3 ± 0.11	-0.863 ± 0.17
AGGCAGCAAUAUUACGCCUU		-3.04 ± 0.27
AGGCAGCAAUAUUACGCGCA	-0.635 ± 0.07	-0.0389 ± 0.098
AGGCAGCAAUAUUACGCGGG	-2.65 ± 0.14	-2.55 ± 0.17
AGGCAGCAAUAUUACGCGUA	-0.695 ± 0.09	-0.127 ± 0.095
AGGCAGCAAUAUUACGCUAA	-1.05 ± 0.097	-0.682 ± 0.11
AGGCAGCAAUAUUACGCUGA	-2.21 ± 0.13	-1.84 ± 0.21
AGGCAGCAAUAUUACGGCCA	-1.07 ± 0.15	-0.0424 ± 0.21
AGGCAGCAAUAUUACGGGCA	-1.39 ± 0.2	-0.422 ± 0.17
AGGCAGCAAUAUUACGUGCC	-2.9 ± 0.26	-2.73 ± 0.31
AGGCAGCAAUAUUACGUGGG	-2.95 ± 0.095	-2.97 ± 0.15
AGGCAGCAAUAUUACGUUAC	-3.46 ± 0.2	-2.55 ± 0.31
AGGCAGCAAUAUUACGUUGA	-2.42 ± 0.11	-1.25 ± 0.1
AGGCAGCAAUAUUACGUUUU	-1.59 ± 0.065	-0.435 ± 0.079
AGGGAGCAAUAUUACGAACG	-2.58 ± 0.39	-1.9 ± 0.36
AGGGAGCAAUAUUACGAAGG	-2.19 ± 0.31	
AGGGAGCAAUAUUACGAGAU	-2.75 ± 0.29	-3.06 ± 0.48
AGGGAGCAAUAUUACGAGGC	-2.51 ± 0.35	-2.59 ± 0.44
AGGGAGCAAUAUUACGCACU	-3.18 ± 0.4	-0.0242 ± 0.24
AGGGAGCAAUAUUACGCGCA	-1.71 ± 0.4	-2.11 ± 0.34
AGGGAGCAAUAUUACGCGGA	-2.2 ± 0.21	-2.68 ± 0.3
AGGGAGCAAUAUUACGCUGU	-2.11 ± 0.26	-3.01 ± 0.47
AGGGAGCAAUAUUACGGAAC	-3.01 ± 0.38	-2.68 ± 0.41

Sequence	self-splicing fitness (ln) (30 °C)	self-splicing fitness (ln) (37 °C)
AGGGAGCAAUAUUACGGACC	-2.79 ± 0.36	-1.37 ± 0.36
AGGGAGCAAUAUUACGGAGA	-2.65 ± 0.4	-2.69 ± 0.32
AGGGAGCAAUAUUACGGCAA	-3.52 ± 0.48	-1.8 ± 0.27
AGGGAGCAAUAUUACGGCCU	-2.43 ± 0.22	-1.41 ± 0.24
AGGGAGCAAUAUUACGGCUA	-2.09 ± 0.21	-2.17 ± 0.18
AGGGAGCAAUAUUACGGGCA	-3.79 ± 0.43	-1.46 ± 0.34
AGGGAGCAAUAUUACGGGCU	-3.05 ± 0.27	-2.49 ± 0.3
AGGGAGCAAUAUUACGGGUC	-4.05 ± 0.3	-3.12 ± 0.22
AGGGAGCAAUAUUACGGUGC	-4.76 ± 0.45	-3.06 ± 0.47
AGGGAGCAAUAUUACGUACC	-2.86 ± 0.33	-1.52 ± 0.29
AGGGAGCAAUAUUACGUCAG		-2.97 ± 0.35
AGGGAGCAAUAUUACGUGAU	-3.34 ± 0.25	-2.91 ± 0.26
AGGGAGCAAUAUUACGUGUC	-3.95 ± 0.47	-2.69 ± 0.26
AGGGAGCAAUAUUACGUGUG	-2.78 ± 0.17	-3.07 ± 0.26
AGGGAGCAAUAUUACGUUAU	-3.84 ± 0.34	-2.94 ± 0.25
AGGGAGCAAUAUUACGUUCG	-3.18 ± 0.22	-1.96 ± 0.23
AGGGAGCAAUAUUACGUUCU	-3.19 ± 0.44	
AGGUAGCAAUAUUACGACCA	0.0772 ± 0.018	0.199 ± 0.038
AGGUAGCAAUAUUACGACGA	-0.363 ± 0.016	-0.00769 ± 0.034
AGGUAGCAAUAUUACGAGCG	-0.808 ± 0.014	-0.435 ± 0.033
AGGUAGCAAUAUUACGAGUG	-2.867 ± 0.019	-1.58 ± 0.034
AGGUAGCAAUAUUACGAUAC	-2.318 ± 0.021	-1.16 ± 0.037
AGGUAGCAAUAUUACGAUGC	-1.62 ± 0.017	-0.828 ± 0.035
AGGUAGCAAUAUUACGCACC	-2.33 ± 0.031	-1.26 ± 0.042
AGGUAGCAAUAUUACGCGAC	-2.971 ± 0.029	-1.8 ± 0.04
AGGUAGCAAUAUUACGCUCG	-0.57 ± 0.017	-0.241 ± 0.036

Sequence	self-splicing fitness (ln) (30 °C)	self-splicing fitness (ln) (37 °C)
AGGUAGCAAUAUUACGCUCU	-2.37 ± 0.024	-1.45 ± 0.038
AGGUAGCAAUAUUACGCUUG	-1.541 ± 0.015	-1.04 ± 0.034
AGGUAGCAAUAUUACGGAUA	-2.53 ± 0.025	-1.6 ± 0.036
AGGUAGCAAUAUUACGUAAA	-2.285 ± 0.018	-1.39 ± 0.034
AGGUAGCAAUAUUACGUAUG	-3.698 ± 0.027	-2.53 ± 0.038
AGGUAGCAAUAUUACGUCCG	-0.127 ± 0.017	0.055 ± 0.036
AGGUAGCAAUAUUACGUCGA	-1.4 ± 0.016	-0.563 ± 0.033
AGGUAGCAAUAUUACGUGAG	-1.02 ± 0.011	-0.588 ± 0.032
AGGUAGCAAUAUUACGUGCG	-0.955 ± 0.014	-0.358 ± 0.033
AGGUAGCAAUAUUACGUGUA	-2.265 ± 0.017	-1.31 ± 0.033
AGGUAGCAAUAUUACGUUAA	-2.881 ± 0.025	-1.91 ± 0.037
AGGUAGCAAUAUUACGUUAG	-3.842 ± 0.029	-2.87 ± 0.042
AGGUAGCAAUAUUACGUUAU	-3.603 ± 0.026	-2.75 ± 0.039
AGGUAGCAAUAUUACGUUGA	-2.893 ± 0.022	-1.61 ± 0.035
AGGUAGCAAUAUUACGUUGU	-3.385 ± 0.02	-1.95 ± 0.035
AGGUAGCAAUAUUACGUUUA	-2.151 ± 0.019	-1.33 ± 0.034
AGUAAGCAAUAUUACGACCC	-1.01 ± 0.47	-0.157 ± 0.35
AGUAAGCAAUAUUACGAGAA		-1.21 ± 0.41
AGUAAGCAAUAUUACGAGCA	-0.223 ± 0.1	-0.349 ± 0.11
AGUAAGCAAUAUUACGAGUG	-3.01 ± 0.27	-3.04 ± 0.43
AGUAAGCAAUAUUACGAUGC	-2.58 ± 0.19	-1.67 ± 0.15
AGUAAGCAAUAUUACGCAAA	-2.45 ± 0.35	-1.46 ± 0.25
AGUAAGCAAUAUUACGCCAG	-3.63 ± 0.33	-1.58 ± 0.29
AGUAAGCAAUAUUACGCCCU	-0.35 ± 0.17	-0.62 ± 0.16
